# Values of other authors, collected in publication PMC2904371.
# Molecular target: Vinculin tail Vd5 (UniProt P18206)
substance,measurement,value
Vinculin head Vd1-Vd4 (from UniProt P18206),Kd,1 nM
